Measured values from patent publication US20030207330A1 (DYAX, published 2003).
fluorescein = fluorescein label, attached with NHS-fluorescein

Target: T1, fibrinogen (species not stated); biotinylated fibrinogen on streptavidin plates in the phage ELISA, free … (Homo sapiens (Human), UniProt P02671 20-644); P02675 31-491; P02679 27-437, Biotinylated at unstated positions in the phage ELISA and unlabelled in the anisotropy assay. The native molecule is a disulfide-linked dimer of the three chains, (A-alpha B-beta gamma)2, and is …)
T1 construct: also called Fgn; fibrinogen target
T1 sequence (alpha): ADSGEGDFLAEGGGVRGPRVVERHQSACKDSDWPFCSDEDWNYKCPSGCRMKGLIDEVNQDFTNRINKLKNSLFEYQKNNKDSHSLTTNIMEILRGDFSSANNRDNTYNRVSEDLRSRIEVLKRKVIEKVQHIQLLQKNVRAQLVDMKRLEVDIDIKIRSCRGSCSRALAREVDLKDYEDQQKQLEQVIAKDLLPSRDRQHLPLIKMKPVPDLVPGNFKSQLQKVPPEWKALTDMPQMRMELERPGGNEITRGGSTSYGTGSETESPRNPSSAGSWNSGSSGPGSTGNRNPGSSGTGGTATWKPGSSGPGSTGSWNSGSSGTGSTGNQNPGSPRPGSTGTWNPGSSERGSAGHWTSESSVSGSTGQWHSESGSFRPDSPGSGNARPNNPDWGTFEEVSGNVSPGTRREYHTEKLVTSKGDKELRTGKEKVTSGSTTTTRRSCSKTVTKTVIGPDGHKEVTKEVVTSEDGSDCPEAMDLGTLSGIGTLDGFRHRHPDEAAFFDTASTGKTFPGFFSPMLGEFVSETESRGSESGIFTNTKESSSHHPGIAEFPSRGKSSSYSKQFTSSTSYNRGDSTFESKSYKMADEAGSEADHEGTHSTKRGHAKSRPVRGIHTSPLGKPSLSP
T1 sequence (beta): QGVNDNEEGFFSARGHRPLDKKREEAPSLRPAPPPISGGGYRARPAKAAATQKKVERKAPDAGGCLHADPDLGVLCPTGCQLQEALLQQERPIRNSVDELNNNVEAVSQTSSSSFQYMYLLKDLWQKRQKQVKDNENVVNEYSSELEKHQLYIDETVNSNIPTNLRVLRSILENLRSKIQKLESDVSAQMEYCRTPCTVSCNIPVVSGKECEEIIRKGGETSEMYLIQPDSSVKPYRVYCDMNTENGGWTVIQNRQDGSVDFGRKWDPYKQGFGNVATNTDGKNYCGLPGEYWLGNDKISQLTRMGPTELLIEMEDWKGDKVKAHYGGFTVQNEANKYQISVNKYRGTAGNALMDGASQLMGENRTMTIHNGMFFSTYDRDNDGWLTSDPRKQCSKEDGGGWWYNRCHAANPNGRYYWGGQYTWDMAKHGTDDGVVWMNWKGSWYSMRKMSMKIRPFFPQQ
T1 sequence (gamma): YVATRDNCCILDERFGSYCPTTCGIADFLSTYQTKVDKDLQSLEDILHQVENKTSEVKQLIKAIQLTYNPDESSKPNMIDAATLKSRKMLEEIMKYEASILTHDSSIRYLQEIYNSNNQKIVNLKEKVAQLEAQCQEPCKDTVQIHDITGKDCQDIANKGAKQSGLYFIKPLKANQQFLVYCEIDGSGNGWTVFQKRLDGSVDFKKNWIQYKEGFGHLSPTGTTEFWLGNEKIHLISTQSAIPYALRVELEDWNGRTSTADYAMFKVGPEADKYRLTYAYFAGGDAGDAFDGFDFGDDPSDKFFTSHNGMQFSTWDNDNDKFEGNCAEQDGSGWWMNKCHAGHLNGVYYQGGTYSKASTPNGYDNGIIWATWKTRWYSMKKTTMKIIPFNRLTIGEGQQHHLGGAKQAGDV
Assay: fluorescence anisotropy, 20 nM fluorescein-labeled peptide, fibrinogen varied, 30° C., 1:1 fit
Protocol: An apparent dissociation constant was determined for a selected polypeptide. For this determination, the polypeptide was labeled on the C-terminal end with NHS-fluorescein. Fluorescence anisotropy measurements were performed in 384-well microplates in a volume of 10 μl in binding buffer using a Tecan Polarion fluorescence polarization plate reader. The concentration of fluorescein labeled peptide was held constant (20 nM), and the concentration of fibrinogen was varied. The polypeptide was tested in the same binding buffer as used in the selection. The binding mixture was equilibrated for 10 minutes in the microplate at 30° C. prior to performing the measurement. The observed change in anisotropy was fit to the equation below via nonlinear regression to obtain the apparent KD. This equation assumes that the polypeptide and fibrinogen form a reversible complex with 1:1 stoichiometry.

B1: fluorescein-labeled synthetic polypeptide based on the TN10/IX polypeptide of SEQ ID NO: 43 (peptide)
peptide: Ac-LYLCNSYPMHPYCNPSGGGK(fluorescein)-NH2
modifications: cysteine pairing not given here; also: retained phage-derived N- and C-terminal dipeptides, which ones not given here
notes: Commercial FMOC solid phase synthesis; also called selected polypeptide; not shown: retained phage-derived N-terminal dipeptide (Gly-Ser-, Ala-Gly- or Gly-Asp-); retained phage-derived C-terminal dipeptide (-Ala-Pro, -Gly-Thr or -Asp-Pro)
Kd: 2 µM
